One substance from patent publication US20090023158A1 can be followed below.

In the case of gamma secretase (endogenous, HEK cells), the “secreted Aβ” value in the data set on C99GVP-SLSS was “This mutation led to a marked reduction (˜97%) in secreted Aβ”; in the data set on C99GVP-N27S, “the other two mutations, G25S and N27S, showed no obvious effect on secreted Aβ”; with C99GVP-G25S it was “the other two mutations, G25S and N27S, showed no obvious effect on secreted Aβ”. The “AICD production and signaling activity” value is “little difference in their respective AICD production (FIG. 9A, lower panels) and signaling activity (FIG. 9D)” in the data set on C99GVP-K28S; “little difference in their respective AICD production (FIG. 9A, lower panels) and signaling activity (FIG. 9D)” with C99GVP-N27S; “little difference in their respective AICD production (FIG. 9A, lower panels) and signaling activity (FIG. 9D)” in the data set with C99GVP-G25S; “little difference in their respective AICD production (FIG. 9A, lower panels) and signaling activity (FIG. 9D)” in the data set with C99GVP-S26L. Besides, the “Aβ40 (secreted, ELISA)” value in the data set with C99GVP-K28S is “the K28S substitution resulted in an even more substantial (˜90%) decrease in both measurements”; in the data set on C99GVP-S26L, “a 52.7±2.3% drop of Aβ40”. In addition, the “total Aβ (secreted)” value was “the K28S substitution resulted in an even more substantial (˜90%) decrease in both measurements” in the data set on C99GVP-K28S and “The S26L mutation led to a 65.7±8.5% reduction in total Aβ” in the data set with C99GVP-S26L. Also, in the data set with C99GVP-SREBP1-gsnk, the Aβ secretion entry was “also maintained normal Aβ secretion”.
